Test results taken from PMC10248797.

Legend:
[1] = target: Lis1 with N-terminal HaloTag (UniProt P43034); test: pull-down; depletion of dynein from solution by Lis1 (0-600 nM) coupled to magnetic beads via its N-terminal HaloTag; SDS-PAGE densitometry of the supernatant; one-site fit with Bmax set to 1
[2] = target: Full-length Ndel1 with N-terminal HaloTag and C-terminal 6X-His tag (UniProt Q9GZM8); test: pull-down; depletion of 5 nM dynein from solution by Ndel1 (0-600 nM) coupled to Magne HaloTag beads; 45 min; binding buffer 30 mM Hepes pH 7.4, 2 mM magnesium acetate, 1 mM EGTA, 10% glycerol, 1 mM DTT, 1 mg/ml casein, 0.1% NP-40, 1 mM ADP, 36 mM KCl; SDS-PAGE densitometry of the supernatant; one-site fit with Bmax set to 1
[3] = target: Full-length phosphomimetic Ndel1 (S198D; T219D; S231D; S242D) with N-terminal HaloTag and C-terminal 6X-His tag (UniProt Q9GZM8); test: as above
[4] = target: N-terminal coiled coil of Ndel1 (1-192) with N-terminal HaloTag and C-terminal 6X-His tag (UniProt Q9GZM8); test: as above
[5] = target: Ndel1 with the C-terminal coiled coil (256-291) deleted, N-terminal HaloTag and C-terminal 6X-His tag (UniProt Q9GZM8); test: as above
Chain of Ndel1 with the C-terminal coiled coil (256-291) deleted, N-terminal HaloTag and C-terminal 6X-His tag (Q9GZM8 other isoform, or with tags, fused parts or gaps): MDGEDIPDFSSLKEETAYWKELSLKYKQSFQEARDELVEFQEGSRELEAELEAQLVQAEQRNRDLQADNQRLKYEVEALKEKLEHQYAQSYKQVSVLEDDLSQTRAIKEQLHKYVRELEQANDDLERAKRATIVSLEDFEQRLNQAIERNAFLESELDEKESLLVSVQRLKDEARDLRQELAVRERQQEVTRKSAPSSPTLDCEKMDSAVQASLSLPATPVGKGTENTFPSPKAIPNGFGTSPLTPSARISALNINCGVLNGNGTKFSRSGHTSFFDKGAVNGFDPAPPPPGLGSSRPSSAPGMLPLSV

Chain of Lis1 with N-terminal HaloTag (P43034 whole entry): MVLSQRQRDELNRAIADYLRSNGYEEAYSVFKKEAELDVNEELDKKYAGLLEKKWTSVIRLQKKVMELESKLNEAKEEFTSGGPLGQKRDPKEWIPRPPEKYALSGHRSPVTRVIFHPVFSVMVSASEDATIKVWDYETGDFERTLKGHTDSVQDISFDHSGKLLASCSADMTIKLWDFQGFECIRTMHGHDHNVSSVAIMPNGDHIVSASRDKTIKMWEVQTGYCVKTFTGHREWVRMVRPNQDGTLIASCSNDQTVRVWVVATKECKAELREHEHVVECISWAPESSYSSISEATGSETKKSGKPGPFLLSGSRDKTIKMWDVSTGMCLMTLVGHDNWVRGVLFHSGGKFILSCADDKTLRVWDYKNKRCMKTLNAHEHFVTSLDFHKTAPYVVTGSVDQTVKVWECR
Chain of Full-length phosphomimetic Ndel1 (S198D; T219D; S231D; S242D) with N-terminal HaloTag and C-terminal 6X-His tag (Q9GZM8 whole entry S198D/T219D/S231D/S242D): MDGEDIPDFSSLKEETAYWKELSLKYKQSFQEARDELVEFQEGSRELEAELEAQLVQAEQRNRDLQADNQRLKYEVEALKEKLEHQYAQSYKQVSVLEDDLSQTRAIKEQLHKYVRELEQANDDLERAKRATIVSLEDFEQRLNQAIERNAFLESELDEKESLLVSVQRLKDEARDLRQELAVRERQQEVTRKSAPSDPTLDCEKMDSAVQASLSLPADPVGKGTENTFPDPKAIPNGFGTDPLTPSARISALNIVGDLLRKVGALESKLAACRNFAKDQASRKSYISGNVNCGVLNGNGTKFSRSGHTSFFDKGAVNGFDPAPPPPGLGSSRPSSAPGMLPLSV
Chain of N-terminal coiled coil of Ndel1 (1-192) with N-terminal HaloTag and C-terminal 6X-His tag (Q9GZM8 1-192): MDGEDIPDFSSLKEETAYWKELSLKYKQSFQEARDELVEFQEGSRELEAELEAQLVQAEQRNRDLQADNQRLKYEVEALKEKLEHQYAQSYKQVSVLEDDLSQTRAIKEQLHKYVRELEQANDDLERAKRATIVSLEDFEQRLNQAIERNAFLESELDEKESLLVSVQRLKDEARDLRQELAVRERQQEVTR
Chain of Full-length Ndel1 with N-terminal HaloTag and C-terminal 6X-His tag (Q9GZM8 whole entry): as the sequence (Q9GZM8 whole entry S198D/T219D/S231D/S242D) above, with D198S, D219T, D231S, D242S counted along it

## SNAP-tagged, recombinant full-length human cytoplasmic dynein-1 with all associated accessory chains (from UniProt Q14204 1-4646; O43237 1-492; P63172 1-113; Q9NP97 1-96; P63167 1-89) (complex)
[1]
  Kd: 101 nM
[2]
  Kd: 32.8 nM
[3]
  Kd: 15.8 nM
[4]
  Kd: 79.3 nM
[5]
  Kd: 55.1 nM
